Measured values reported in patent publication US7256013B2, “Kit for determining the acetylation level of a peptide based on sensitivity of the peptide to peptidase” (Cyclex Co., Ltd., priority 1999, dated 2007).
The star is where a group is joined. AMC = Cc1cc(=O)oc2cc(N*)ccc12; Boc = CC(C)(C)OC(=O)*

Legend:
recombinant SIRT1 = biological target: T1, recombinant SIRT1 (Homo sapiens, UniProt Q96EB6); test: SIRT1 deacetylase activity assay (FMAP) with Nma-VGAK(Ac)RHSK(Dnp)-NH2 and lysylendopeptidase; format: biochemical; settings: serial dilutions of NAD added to the reaction solution; FIG. 7
T1 construct: the first amino acid residue to the 747th residue of SIRT1 (full length) was amplified using this primer set; made in house; host or cells: E. coli BL21 Gold (DE3), vector pGEX-4T-1
T1 sequence (Q96EB6 1-747): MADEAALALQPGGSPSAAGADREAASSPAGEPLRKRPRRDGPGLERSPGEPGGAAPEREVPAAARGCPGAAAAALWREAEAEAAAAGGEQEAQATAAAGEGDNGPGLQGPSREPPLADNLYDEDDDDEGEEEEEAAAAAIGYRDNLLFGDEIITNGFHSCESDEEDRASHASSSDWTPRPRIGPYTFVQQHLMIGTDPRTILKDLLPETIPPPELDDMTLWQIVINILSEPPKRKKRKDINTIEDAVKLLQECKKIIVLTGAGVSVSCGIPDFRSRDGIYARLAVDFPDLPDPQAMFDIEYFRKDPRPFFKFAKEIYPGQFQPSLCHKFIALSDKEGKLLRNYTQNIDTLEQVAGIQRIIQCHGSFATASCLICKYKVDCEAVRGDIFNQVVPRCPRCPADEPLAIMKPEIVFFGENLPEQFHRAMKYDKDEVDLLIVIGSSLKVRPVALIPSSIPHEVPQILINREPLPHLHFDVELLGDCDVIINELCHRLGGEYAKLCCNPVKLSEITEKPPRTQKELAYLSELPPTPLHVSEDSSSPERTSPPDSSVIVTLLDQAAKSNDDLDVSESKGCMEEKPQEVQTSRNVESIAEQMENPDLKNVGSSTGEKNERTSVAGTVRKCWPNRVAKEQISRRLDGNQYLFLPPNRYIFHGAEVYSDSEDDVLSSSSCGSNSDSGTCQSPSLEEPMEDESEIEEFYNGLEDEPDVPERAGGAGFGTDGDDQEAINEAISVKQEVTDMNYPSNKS
Method: Peptide for the SIRT1-activity assay: Nma-VGAK(Ac)RHSK(Dnp)-NH2
5 μl of 0.005 U/μl lysylendopeptidase (LEP) was combined with 90 μl of an enzyme reaction buffer (50 mM Tris-HCl (pH 8.8), 4 mM MgCl2, 0.2 mM DTT) and 1 μl of 10 mM peptide solution for SIRT1-activity assay. 2 μl of 5 mM NAD and 2 μl of each of serial dilutions of a recombinant SIRT1 solution, or alternatively 2 μl of each of serial dilutions of an NAD solution and 2 μl of a solution containing 1 mg/ml recombinant SIRT1 were added at the same time to the mixture. The enzyme reaction and fluorescence assay were performed at 30° C. using 384-well plates for fluorescence assay.
The fluorescence intensity was measured at excitation wavelength 355 nm/fluorescence wavelength 460 nm by using a Wallac 1420 ARVO HTS Multi Label Counter. The measurement was repeated at about 2- to 3-minute intervals for 50 minutes.
It has been reported that the presence of NAD is essential for the deacetylase activity of SIRT1. In order to assess whether the NAD-dependency of SIRT1 activity can be detected using the assay method, an NAD solution was serially diluted and each dilution was added to the reaction solution, and then observation was made for the changes in the fluorescence intensity.

plasmin = plasmin (Homo sapiens, UniProt P00747); test: Cleavage of fluorescence-labeled substrate peptide by plasmin; format: biochemical; settings: 0.001U plasmin; FIG. 2
Method: (§1) 1 μl of DMSO solution containing 10 mM substrate peptide, Boc-Val-Leu-(Ac)Lys-MCA, was added to 64 μl HDAC reaction buffer (25 mM Tris-HCl pH 7.5) for each assay. The mixture was poured into the wells of a microplate for fluorometry and was incubated at 30° C. Then, 10 μl of histone deacetylase solution was added to each well and the plate was subjected for deacetylation at 30° C. for 60 minutes. After the reaction, 5 μl of peptidase solution that was diluted with 25 mM Tris-HCl (pH 7.5) to an optimal concentration and 20 μl 5× protease reaction buffer were added to each well. The fluorescence intensity was measured every 150 seconds with fluorescence microplate reader. The fluorescence intensity was measured using Wallac 1420 ARVOsx Multi Label Counter (Amersham-Pharmacia Biotech). The composition of the reaction buffer was as follows.
(§2) 5×10^−6 AU lysylendopeptidase or 0.001U plasmin was added to Boc-Val-Leu-Lys-MCA or Boc-Val-Leu-(Ac)Lys-MCA. The Figures show the fluorescence intensity measured at an interval of about 150-seconds.

lysylendopeptidase = lysylendopeptidase (Achromobacter lyticus, UniProt P15636); test: Cleavage of fluorescence-labeled substrate peptide by lysylendopeptidase; format: biochemical; settings: 5×10^−6 AU lysylendopeptidase; FIG. 1
Method: as §1, §2

histone deacetylase = test: Histone deacetylase activity assay with Boc-Val-Leu-(Ac)Lys-MCA and lysylendopeptidase (fluorescence); format: biochemical, human; settings: at a concentration of about 200 nM; FIG. 5
Method: MCF7 cells were washed with PBS, and then centrifuged. Precipitated cells were suspended in 4 ml lysis buffer and were left standing 15 minutes on ice. 5 ml lysate buffer was obtained by washing the centrifuge tube with 1 ml lysis buffer. The lysate was loaded on 15 ml sucrose cushion buffer in a centrifuge tube for type-07 rotor. Then, The tubes were centrifuged at 1300 g for 20 minutes and precipitated cells were recovered with 1.5 ml of the lysis buffer. After washing the cells, the cells were suspended in 700 μl low-salt buffer. The cells were sonicated for 30 seconds, and then allowed to stand still on ice for 30 minutes. The lysate was centrifuged at 100,000 g for 40 minutes, and the supernatant was collected to recover crude histone deacetylase. The pooled crude histone deacetylase was placed in a 1.5-ml tube, and was dialyzed overnight against a solution containing 50% glycerol, 150 mM NaCl, and 20 mM Tris (pH 7.5). The dialysate was substituted 3 times with fresh buffer. […]
1 μl of DMSO solution containing 10 mM substrate peptide, Boc-Val-Leu-(Ac)Lys-MCA, was added to 64 μl HDAC reaction buffer (25 mM Tris-HCl pH 7.5) for each assay. […] The fluorescence intensity was measured every 150 seconds with fluorescence microplate reader. The fluorescence intensity was measured using Wallac 1420 ARVOsx Multi Label Counter (Amersham-Pharmacia Biotech). […]

Chain of lysylendopeptidase (P15636 206-473 limits assumed, species assumed): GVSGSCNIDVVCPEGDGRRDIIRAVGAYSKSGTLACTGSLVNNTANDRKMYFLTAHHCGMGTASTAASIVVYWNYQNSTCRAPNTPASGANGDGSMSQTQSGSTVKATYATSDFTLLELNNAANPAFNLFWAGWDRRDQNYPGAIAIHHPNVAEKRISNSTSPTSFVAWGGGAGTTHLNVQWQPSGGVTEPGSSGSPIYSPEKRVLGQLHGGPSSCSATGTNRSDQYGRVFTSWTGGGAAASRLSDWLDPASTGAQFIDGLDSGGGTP
Chain of plasmin (P00747 581-810 limits assumed, species assumed): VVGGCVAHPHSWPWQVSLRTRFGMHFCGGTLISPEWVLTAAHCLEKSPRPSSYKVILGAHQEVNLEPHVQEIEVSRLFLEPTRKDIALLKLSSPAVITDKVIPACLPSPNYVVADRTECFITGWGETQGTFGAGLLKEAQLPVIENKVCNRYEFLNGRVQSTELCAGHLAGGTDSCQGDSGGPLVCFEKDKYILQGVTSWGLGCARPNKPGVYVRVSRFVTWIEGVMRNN
Chain of plasmin (P00747 97-580 partner limits assumed, species assumed): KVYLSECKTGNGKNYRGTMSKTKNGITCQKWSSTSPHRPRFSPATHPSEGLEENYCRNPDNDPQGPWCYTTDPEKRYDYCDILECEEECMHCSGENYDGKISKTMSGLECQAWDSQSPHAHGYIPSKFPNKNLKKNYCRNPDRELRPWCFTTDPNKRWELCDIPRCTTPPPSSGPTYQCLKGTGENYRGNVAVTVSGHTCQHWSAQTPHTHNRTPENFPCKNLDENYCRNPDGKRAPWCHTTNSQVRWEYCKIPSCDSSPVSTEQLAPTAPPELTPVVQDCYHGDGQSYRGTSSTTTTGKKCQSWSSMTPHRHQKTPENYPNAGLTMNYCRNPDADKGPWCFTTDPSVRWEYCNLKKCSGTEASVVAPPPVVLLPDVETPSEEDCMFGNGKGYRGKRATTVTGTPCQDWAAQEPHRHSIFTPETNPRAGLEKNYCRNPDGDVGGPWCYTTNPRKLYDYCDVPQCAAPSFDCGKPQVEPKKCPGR

effect on the deacetylation reaction (inhibition) (histone deacetylase)	Molecule	fluorescence intensity (deacetylation activity of recombinant SIRT1) (recombinant SIRT1)	peptide cleavage by plasmin (plasmin)	peptide cleavage by lysylendopeptidase (lysylendopeptidase)
	NC(=O)c1ccc[n+]([C@@H]2O[C@H](COP(=O)([O-])OP(=O)(O)OC[C@H]3O[C@@H](n4cnc5c(N)ncnc54)[C@H](O)[C@@H]3O)[C@@H](O)[C@H]2O)c1 [NAD]	increased in an NAD concentration-dependent fashion		
	Boc-Val-Leu-Lys-MCA (Boc-Val-Leu-Lys-{AMC}) [fluorescence labeled substrate peptide, non-acetylated]		digested	digested
	Boc-Val-Leu-(Ac)Lys-MCA (VLK; HELM PEPTIDE1{[CC(C)(C)OC(=O)[*:2]].V.L.K.[Cc1cc(=O)oc2cc(N[*:1])ccc12]}|PEPTIDE2{[ac]}$PEPTIDE1,PEPTIDE2,4:R3-1:R2$$$V2.0; SMILES CC(=O)NCCCC[C@H](NC(=O)[C@H](CC(C)C)NC(=O)[C@@H](NC(=O)OC(C)(C)C)C(C)C)C(=O)Nc1ccc2c(C)cc(=O)oc2c1) [fluorescence labeled substrate peptide with an acetylated lysine residue]		did not cleave	did not cleave
almost completely inhibited	CC(/C=C/C(=O)NO)=C\[C@@H](C)C(=O)c1ccc(N(C)C)cc1 [Trichostatin A]			
